From US6767890 come the findings set out here.

The experiment deals with Galanin receptor of rat ileum (rat). Briefly: cell-based or functional assay.

As for Galanin (peptide), the Agonism (contraction of rat ileum), galanin 0.1 µM came out at 100% and the Agonism, average of two preparations, galanin 0.1 µM was 100%.
